The chains are these.
B1: human eIF5B_(1076–1220), comprising domain 4 (GH-eIF5B-D4) (domain or fragment, UniProt O60841 1076-1220, looked up)
chain: YKKQKQEEFKHIAVFPCKIKILPQYIFNSRDPIVMGVTVEAGQVKQGTPMCVPSKNFVDIGIVTSIEINHKQVDVAKKGQEVCVKIEPIPGESPKMFGRHFEATDILVSKISRQSIDALKDWFRDEMQKSDWQLIVELKKVFEII
B2: eIF5_(196–431) (GH-eIF5-CTD) (domain or fragment, human, UniProt P55010 196-431, looked up)
chain: EEEEDDDWGEDTTEEAQRRRMDEISDHAKVLTLSDDLERTIEERVNILFDFVKKKKEEGVIDSSDKEIVAEAERLDVKAMGPLVLTEVLFNEKIREQIKKYRRHFLRFCHNNKKAQRYLLHGLECVVAMHQAQLISKIPHILKEMYDADLLEEEVIISWSEKASKKYVSKELAKEIRVKAEPFIKWLKEAEEESSGGEEEDEDENIEVVYSKAASVPKVETVKSDNKDDDIDIDAI
B3: human eIF5B_(951–1220), comprising domains 3 and 4 (GH-eIF5B-D34) (domain or fragment, UniProt O60841 951-1220, looked up)
chain: YKEDEIPVLKDELIHELKQTLNAIKLEEKGVYVQASTLGSLEALLEFLKTSEVPYAGINIGPVHKKDVMKASVMLEHDPQYAVILAFDVRIERDAQEMADSLGVRIFSAEIIYHLFDAFTKYRQDYKKQKQEEFKHIAVFPCKIKILPQYIFNSRDPIVMGVTVEAGQVKQGTPMCVPSKNFVDIGIVTSIEINHKQVDVAKKGQEVCVKIEPIPGESPKMFGRHFEATDILVSKISRQSIDALKDWFRDEMQKSDWQLIVELKKVFEII

Like-named read-outs stand apart in the source and are kept apart here. Where no end group is shown, it is not given here.

Common to all, as to assay: fluorescence polarisation
Assay [1] concerns the target B3.
Assay [2] deals with B1.
Assay [3] addresses B2.
The target of assay [4] is Full-length human eIF5 (GH-eIF5) (human, UniProt P55010 1-431).
In assay [5] the target is B3. The source holds these as a separate data set.
Assay [6] concerns the target B1. The source holds these as a separate data set.

In general, Kd refers to the concentration at which binding is half-saturated. Lower therefore signals a tighter complex.

For EEEDEDENIEVVYSKAASVPKVETVKSDNKDDDIDIDAI (peptide, UniProt P55010 393-431, looked up) [eIF5 fragment comprising the C-terminal 39 residues (eIF5-CT39)], the Kd in assay [1] was 1100 nM; in assay [2], 500 nM.

B1: the Kd in assay [3] and in assay [4] was 370 nM in each case.

On to DIDIDAI (peptide, UniProt P55010 425-431, looked up, also: fluorescein label, position not given here) [fluorescein-labeled 7-residue eIF5 C-terminal peptide (Fl-eIF5-CT7)], for which the Kd in assay [5] was 2400 nM; in assay [6] it was 1400 nM.

In assay [1], B2 displayed a Kd of 720 nM.

DDDIDIDAI (peptide, UniProt P55010 423-431, looked up) [eIF5 fragment comprising the C-terminal 9 residues (eIF5-CT9)]: the values for the Kd in assay [1] and in assay [2] were 1200 nM and 740 nM, respectively.

As for B3, binding in assay [4] was put at a Kd of 510 nM.

These data come from article PMC6177315 (Biochemistry, 2018).
